Source: the RNAGym collection of RNA variant scans (doi:10.1073/pnas.2313332121)

B1: TPR t1 (parent)
chain: GACCAAUCUGCCCUCAGAGCUCGAGAACAUCUUCGGAUGCAGAGGAGGCAGGCUUCGGUGGCGCGAUAGCGCCAACGUCCUCAACCUCCAAUGCAUCCCACCACAUGAUGAUGCCUGAAGAGCCUUGGUUUUUUG

Variants of: B1
Assay: polymerase ribozyme fitness, log enrichment relative to wild type (log ratio); higher = more active; in vitro selection for triplet polymerase activity
Outline: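 Each subunit of a heterodimeric triplet polymerase ribozyme was represented by a PCR-built, transcribed mutant library that underwent triplicate single-round in vitro selection with frozen incubation at −7 °C. Extended constructs were recovered by gel excision, streptavidin-bead capture and RT-PCR, and Illumina sequencing of input and output libraries kept genotypes with ≥10 input reads and ≥1 read per output. Fitness is the logarithm of genotype enrichment relative to wild-type enrichment, from inverse-variance-weighted replicate averages, with a logarithm base of 2.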

Variant | polymerase ribozyme fitness (log ratio)
GACCUAUCUGCCCUCAGAGCUCGAGAACAUCUUCGGAUGCAGAGGAGGCAGGCUUCGGUGGCGCGAUAGUGCCAACGUCCUCAACCUCUAAUGCAUCCCACCACAUGAUUAUGCCUGAAGAGCCUUGGUUUUUUG [A5U C70U C89U G110U] | -2.97
GACCUAUCUGCCCUCAGAGCUCGAGAACAUCUUCGGAUGAAGAGGAGGCAGGCUUCGGUGGCGCGAUAGCGCCAACGUCCUCAACCUCCAAUGCAUCCCACCACAUGAUGAUGCCUGAAGAGCCUUGGUUUUUUG [A5U C40A] | -2.19
GACCUAUCUGCCCUCAGAGCUCGAGAACAUCUUCGGAUGCGGAGGAGGCAGGCUACGGUGGCGCGAUAGGGCCAACGUCCUCAACCUCCAAUGCAUCCCACCACAUGAUGAUGCCUGAAGAGCCUUGGUUUUUUG [A5U A41G U55A C70G] | -3.9
GACCUAUCUGCCCUCAGAGCUCGAGAACAUCUUCGGAUGCAGAGGAGGCAGGCUUCGGUGGCGCGAUAGCGGCAACGUCCCCAACCUCCAAUGCAUCCCACCACAUGAUGAUGCCUGAAGAGCCUUGGUUUUUUG [A5U C72G U81C] | -1.14
GACCUAUCUGGCCUCUGAGCUCGAGAACAUCUUCGGAUGCAGAGGAGGCAGGCUUCGGUUGCGCGAUAGCGCCAACGUCCUCAACCUCCAAUGCAUCCCACCCCAUGAUGAUGCCUGAAGAGCCUUGGUUUUUUG [A5U C11G A16U G60U A103C] | -5.34
GACCUAUCUGCCCUCAGAGCUCGAGAACAUCUUCGGAUGCAGAGGAGGCAGGCUUCGGUGGCGCGAUAGUGCCAACGUCCUCAACCUCCAAUGCAUCCCACCACAUGAUGAUGCCUGAAGAGCCUUGGUUUUUUG [A5U C70U] | -0.781
GACCUAUCUGCCUUCAGAGCCCGAGAACAUCUUCGGAUGCAGAGGAGGCAGGCUUCGGUGGCGCGAUAGCGCCAACGUCCUCAACCUUCAAUGCAUCCCACCACAUGAUGAUGCCUGAAUAGCCUUGGUUUUUUG [A5U C13U U21C C88U G120U] | -0.379
GACCUAUCUGCCGUCAGAGCUCGAGAACAUCUUCGGAUGCAGAGGAGGCAGGGUUCGGUGGCGCGAUAGCGCCAACGUCCUCAACCUCCAAUGCAUCCCACCACAUGAUGAUGCCUGUAGAGCCUUGGUUUUUUG [A5U C13G C53G A118U] | -2.18
GACCUAUCUGCCCUCAGAGCUCGAGGACAUCUUCGGAUGCAGAGGAGGCAGGCUUCGGUGGCGCGAUAGCGCCAACGUCCUCAACCUCCAAUGCAUCCCACCACAUGAUGAUGCCUGAAGAGCCUUGGUUUUUUG [A5U A26G] | -2.87
GACCUAUCUGCCCUCAGAGCUCGAGAACAUCUUCGGAUGCAGAGGAGGCAGGCUUUGGUGGCGCGAUAGCGCCAACGUCCUCAACCUCCACUGCAUCCCACCACAUGAUGAGGCCUGAAGAGCCUUGGUUUUUUG [A5U C56U A91C U112G] | -1.59
GACCUAUCUGCUCUCAGGGCUCGAGAACAUCUUCGGAUGCAGAGGAGGCAGGCUUCGGUGGCGCGAUAGCGCCAACGUCUUCAACCUCCAAUGCAUCCCACCACAUGAUGAUGUCUGAAGAGCCUUGGUUUUUUG [A5U C12U A18G C80U C114U] | -4.01
GACCUAUCUGCCCUCAGAGCUCGAGAACAUCUUCGGAUGCUGAGGAGGCAGGCUUCGGUGGCGCGAUAUCGCCAACGUCCUCAACCUCCAAUGCAUCCCACCACAUGAUGAUGCCUGAAGAGCCUUGGUUUUUUG [A5U A41U G69U] | 0.0184
GACCGAUCUGCCCUCAGAGCUCGAGAACAUCUUCGGAUGCAGAGGAGGCAGGCUUCGGUGGCGCGAUAGCGCCAACGUCCUCAACCUCCAAUGCAUCCCACCACAUGAUGAUGCCUGAAGAGCCUUGGUUUUAUG [A5G U133A] | -0.954
GACCUAUCUGGCCUCAGAGCUCGAGAACGUCUUCGGAUGCAGAGGAGGCAGGCUUCGGUGGCACGAUAGCGCCAACGUCCUCAACCGCCAAUGCAUCCCACCACAUGAUGAUGCCUGAAGAGCCUUGGUUUUUUG [A5U C11G A29G G63A U87G] | -1.98
GACCUAUCUGCCCUCAGCGCUCGAGAACAUCUUCGGAUGCAGAGGAGGCAGGCUUCUGUGGCGCGAUAGCGUCAACGUCCUCAACCUCCAAUGCAUCCCACCACAUGAUGAUGCCUGAAGAGCCUUGGUUUUUUG [A5U A18C G57U C72U] | -2.48
GACCUGUCUGCCCUCAGAGCUCGAGAACAUCUUCGGAUGCAGAGGAGGCAGGCUUCGGUGGCGCGAUAUCGCCAACGUCCUCAACAUCCAAUGCAUCCCACAACAUGAUGAUGCCUGAAGAGCCUUGGUUUUUUG [A5U A6G G69U C86A C102A] | -2.02
GACCUAUCUGCCGUCAGAGCUCGAGAACAUCUUCGGAUGUAGAGGAGGCAGGCUACGGAGGCGCGAUAGCGCCAACGUCCUGAACCUCCAAUGCAUCCCACCACAUGAUGAUGCCUGAAGAGCCUUGGUUUUUUG [A5U C13G C40U U55A U59A C82G] | -2.63
GACCUAUCUGCCCUCAGAGCUCGAGAACAUCUUCGGAUGCAGAGGAGGGAAGCUUCGGUGGCGCGAUAGCGCCUACGUCCUAAACCUCCAAUGCAUCCCACCACAUGAUGAUGCCUGAAGAGCCUUGGUUUUUUG [A5U C49G G51A A74U C82A] | -4.76
GACCUCUCUGCCCUCAGAGCUCGAGAACAUCUUCGGAUGCAGAGGAGGCAGGCUUCGGUGGCUCGAUAGCGCCAACGUCCUCAACCUCCAAUGCAUCCCACCACAUGAUGAUGCCUGAAGAGCCUUGGUUUUUUG [A5U A6C G63U] | -1.11
GACCUAUCUGUCCUCAGAGCUCGAGAACAUCUUCGGAUGCAGAGGAGGCAGGCUUCGGUGGCCCGAUAGCGCCAACGUCAUCAACCUCCAAUGCAUCCCACCACCUGAUGAUUCCUGAAGAGCCUUGGUUUUUUG [A5U C11U G63C C80A A105C G113U] | -5.39
GACCUAUCUGCCUUCAGAGCUCGAGAACAUCUUCGGAUGCAGAGGAGGCAGGCUUCGGUGGCGCGAUAGCGCCAACGGCCUAAACCUCCAAUGCAUCCCACCAUAUGACGAUGCCUGAAGAGCCUUGGUUUUUUG [A5U C13U U78G C82A C104U U109C] | -6.49
